Results published in patent US20240132578A1.

Tests used:
Test in all cases: cell-based or functional assay
[1] = target: HIV-1 Env of isolate 93RW029 (clade A pseudovirus) (HIV-1)
[2] = target: HIV-1 Env of isolate APV_17, clade B (HIV-1)
[3] = target: HIV-1 Env of isolate MGRM-Chronic-B-002, clade B (HIV-1)
[4] = target: HIV-1 Env of isolate MGRM-D-019 (clade D pseudovirus) (HIV-1)
[5] = target: HIV-1 Env of pseudovirus MGRM-F1-014 (clade F) (HIV-1)
[6] = target: HIV-1 Env of pseudovirus MGRM-F1-015 (clade F) (HIV-1)
[7] = target: HIV-1 Env of pseudovirus MGRM-F1-020 (clade F) (HIV-1)
[8] = target: HIV-1 Env of pseudovirus MGRM-F1-021 (clade F) (HIV-1)
[9] = target: HIV-1 IAVI-C18 envelope (Env) on pseudovirus (HIV-1)
[10] = target: HIV-1 MGRM-G-006 Env (pseudovirus) (HIV-1)
[11] = target: HIV-1 envelope glycoprotein (Env) of isolate MGRM-C-020 (HIV-1)
[12] = target: envelope of aMLV pseudovirus (negative control)
[13] = target: HIV-1 92UG024 Env (HIV-1)
[14] = target: HIV-1 92UG024 envelope protein (Env) on pseudovirus (HIV-1)
[15] = target: HIV-1 Env of isolate MGRM-AG-013 (pseudovirus) (HIV-1)
[16] = target: HIV-1 Env of isolate MGRM-F1-018 (HIV-1)
[17] = target: HIV-1 Env of isolate MGRM-F1-020 (HIV-1)
[18] = target: HIV-1 Env of isolate MGRM-G-001 (subtype G) (HIV-1)
[19] = target: HIV-1 Env of isolate MGRM-G-011 (subtype G) (HIV-1)
[20] = target: HIV-1 Env of isolate MGRM-G-028 (subtype G) (HIV-1)
[21] = target: HIV-1 MGRM-C-026 Env (HIV-1)
[22] = target: HIV-1 MGRM-D-018 envelope protein (Env) on pseudovirus (HIV-1)
HIV-1 NL43 Env (HIV-1) = target: HIV-1 NL43 Env (HIV-1)
[23] = target: HIV-1 Env of isolate MGRM-F1-017 (pseudovirus) (HIV-1)
[24] = target: HIV-1 envelope glycoprotein (Env) of isolate 92WR024, subtype A (HIV-1)
[25] = target: HIV-1 envelope glycoprotein (Env) of isolate THRO.18, on pseudovirus (HIV-1)
[26] = target: HIV-1 envelope glycoprotein (Env) of isolate TRO.11, on pseudovirus (HIV-1)
[27] = target: HIV-1 Env of isolate 92UG024 (pseudovirus) (HIV-1)
[28] = target: HIV-1 Env of isolate MGRM-A-010 (subtype A) (HIV-1)
[29] = target: HIV-1 Env of isolate MGRM-AE-001 (subtype AE) (HIV-1)
[30] = target: HIV-1 Env of isolate MGRM-D-002 (pseudovirus) (HIV-1)
[31] = target: HIV-1 Env of isolate MGRM-D-005 (pseudovirus) (HIV-1)
[32] = target: HIV-1 Env of isolate MGRM-D-013 (pseudovirus) (HIV-1)
[33] = target: HIV-1 Env of isolate MGRM-D-018 (pseudovirus) (HIV-1)
[34] = target: HIV-1 Env of isolate MGRM-D-021 (pseudovirus) (HIV-1)
[35] = target: HIV-1 Env of isolate MGRM-D-026 (HIV-1)
[36] = target: HIV-1 Env of pseudovirus isolate MGRM-C-010 (clade C) (HIV-1)
[37] = target: HIV-1 Env of pseudovirus isolate MGRM-C-022 (clade C) (HIV-1)
[38] = target: HIV-1 Env of pseudovirus isolate MGRM-C-025 (clade C) (HIV-1)

Sequence of 1443_C16 (PG16) (TCN-116) (antibody) (VH): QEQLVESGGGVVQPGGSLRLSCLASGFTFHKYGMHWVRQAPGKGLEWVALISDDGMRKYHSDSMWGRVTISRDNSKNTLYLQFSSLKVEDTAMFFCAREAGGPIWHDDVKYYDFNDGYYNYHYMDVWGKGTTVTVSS
Sequence of 1443_C16 (PG16) (TCN-116) (antibody) (VL): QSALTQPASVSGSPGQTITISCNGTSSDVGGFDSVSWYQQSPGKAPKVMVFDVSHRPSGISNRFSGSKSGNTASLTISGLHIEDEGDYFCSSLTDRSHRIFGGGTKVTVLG

Substance | IC50 (µg/ml), pseudovirus neutralization [1] [µg/mL] | IC50 (µg/ml), pseudovirus neutralization [2] [µg/mL] | IC50 (µg/ml), pseudovirus neutralization [3] [µg/mL] | IC50, pseudovirus neutralization [4] [µg/mL] | IC50 [5] [µg/mL] | IC50 [6] [µg/mL] | IC50 [7] [µg/mL] | IC50 [8] [µg/mL] | neutralization IC50 [9] [µg/mL] | IC50 (µg/ml), pseudovirus neutralization [10] [µg/mL] | IC50 (µg/ml), pseudovirus neutralization [11] [µg/mL] | IC50 [12] [µg/mL] | IC50, pseudovirus neutralization [13] [µg/mL] | IC50 (ug/mL), pseudovirus neutralization [14] [µg/mL] | IC50, pseudovirus neutralization (HIV-1 NL43 Env (HIV-1)) [µg/mL] | other results
2F5 (antibody) | > 50 | 4.61 | 1.25 | 0.14 | 15.1 | 0.1 | 0.59 | 1.37 | > 50 | 1.33 | > 50 | > 50 | – | – | – | –
2G12 (antibody) | > 50 | > 50 | > 50 | > 50 | > 50 | > 50 | > 50 | 14.1 | > 50 | > 50 | 18.6 | > 50 | – | – | – | –
4E10 (antibody) | 15.5 | 10.5 | 2.19 | 0.04 | 7.36 | 0.53 | 0.66 | 1.87 | > 50 | 1.23 | 2.8 | > 50 | – | – | – | –
1443_C16 (PG16) (TCN-116) (antibody) | 3.83 | 24.8 | 3.06 | 0.01 | 0.01 | > 50 | 4.35 | > 50 | 0.0067 | 2.42 | > 50 | > 50 | – | – | – | –
1495_C14 (PGC14) (antibody) | 42 | > 50 | > 50 | > 50 | > 50 | > 50 | > 50 | 46 | > 50 | > 50 | > 50 | > 50 | – | – | – | –
1496_C09 (PG9) (TCN-109) (antibody) | 1.19 | 14.6 | 1.41 | 0.03 | 0.01 | – | 4.55 | – | 0.0535 | 0.51 | – | – | 1.91 | 1.91 | 0.687 | IC50 (µg/mL), pseudovirus neutralization [15]: 0.259 µg/mL; IC50 (µg/mL), pseudovirus neutralization [16]: 0.019 µg/mL; IC50 (µg/mL), pseudovirus neutralization [17]: 6.4 µg/mL; IC50 (µg/mL), pseudovirus neutralization [18]: 0.166 µg/mL; IC50 (µg/mL), pseudovirus neutralization [19]: 0.335 µg/mL; IC50 (µg/mL), pseudovirus neutralization [20]: 0.891 µg/mL; IC50, pseudovirus neutralization [21]: 0.113 µg/mL; IC50 (ug/mL), pseudovirus neutralization [22]: 0.0444 µg/mL
4838_L06 (PGT-121) (antibody) | – | – | – | – | – | – | – | – | – | – | – | – | > 10 | > 10 | > 10 | IC50 (µg/mL), pseudovirus neutralization [23]: 16.9 µg/mL; IC50, pseudovirus neutralization [24]: > 50 µg/mL; IC50, pseudovirus neutralization [25]: > 50 µg/mL; IC50, pseudovirus neutralization [26]: 0.008 µg/mL
4877_D15 (PGT-122) (antibody) | – | – | – | – | – | – | – | – | – | – | – | – | > 10 | > 10 | > 10 | IC50 (µg/mL), pseudovirus neutralization [15]: 0.521 µg/mL; IC50 (µg/mL), pseudovirus neutralization [23]: > 50 µg/mL; IC50, pseudovirus neutralization [21]: 0.0089 µg/mL; IC50 (ug/mL), pseudovirus neutralization [22]: 0.0115 µg/mL; IC50, pseudovirus neutralization [24]: > 50 µg/mL; IC50, pseudovirus neutralization [25]: > 50 µg/mL; IC50, pseudovirus neutralization [26]: 0.011 µg/mL
5114_A19 (PGT-128) (antibody) | – | – | – | – | – | – | – | – | – | – | – | – | – | – | – | IC50 (µg/mL), pseudovirus neutralization [27]: > 50 µg/mL; IC50, pseudovirus neutralization [28]: 0.005 µg/mL; IC50, pseudovirus neutralization [29]: 0.069 µg/mL; IC50 (µg/mL), pseudovirus neutralization [30]: 0.011 µg/mL; IC50 (µg/mL), pseudovirus neutralization [31]: 0.051 µg/mL; IC50 (µg/mL), pseudovirus neutralization [32]: 8.85 µg/mL; IC50 (µg/mL), pseudovirus neutralization [33]: 0.008 µg/mL; IC50 (µg/mL), pseudovirus neutralization [34]: 0.014 µg/mL; IC50 (µg/mL), pseudovirus neutralization [35]: > 50 µg/mL; IC50 (µg/mL), pseudovirus neutralization [16]: 0.023 µg/mL; IC50 (µg/mL), pseudovirus neutralization [17]: 0.355 µg/mL; IC50, pseudovirus neutralization [36]: > 50 µg/mL; IC50, pseudovirus neutralization [37]: 0.042 µg/mL; IC50, pseudovirus neutralization [38]: 10.5 µg/mL
